{"source": "patent US20230322924A1", "about": "(Janssen / Centocor, published 2023)", "binders": {"B1": {"name": "PS3B73 (bispecific antibody, human IgG4 S228P, kappa, F234A L235A)", "heavy": "not shown", "light": "not shown", "VH": "EVQLVESGGGLVQPGGSLRLSCAASGFTFNTYAMNWVRQAPGKGLEWVARIRSKYNNYATYYAASVKGRFTISRDDSKNSLYLQMNSLKTEDTAVYYCARHGNFGNSYVSWFAYWGQGTLVTVSS", "VL": "QTVVTQEPSLTVSPGGTVTLTCRSSTGAVTTSNYANWVQQKPGQAPRGLIGGTNKRAPGTPARFSGSLLGGKAALTLSGVQPEDEAEYYCALWYSNLWVFGGGTKLTVL", "notes": "IgG4 PAA; CD3 arm with F405L, R409K; also called PSMB361 x CD3B219"}, "B2": {"name": "PS3B75 (bispecific antibody, human IgG4 S228P, kappa, F234A L235A)", "heavy": "not shown", "light": "not shown", "VH": "B1 VH", "VL": "B1 VL", "notes": "IgG4 PAA; CD3 arm with F405L, R409K; also called PSMB363 x CD3B219"}, "B3": {"name": "PS3B74 (bispecific antibody, human IgG4 S228P, kappa, F234A L235A)", "heavy": "not shown", "light": "not shown", "VH": "B1 VH", "VL": "B1 VL", "notes": "IgG4 PAA; CD3 arm with F405L, R409K; also called PSMB362 x CD3B219"}, "B4": {"name": "PS3B27 (bispecific antibody)", "chain 1": "not shown", "chain 2": "not shown", "chain 3": "EVQLVESGGGLVQPGGSLRLSCAASGFTFNTYAMNWVRQAPGKGLEWVARIRSKYNNYATYYAASVKGRFTISRDDSKNSLYLQMNSLKTEDTAVYYCARHGNFGNSYVSWFAYWGQGTLVTVSSASTKGPSVFPLAPCSRSTSESTAALGCLVKDYFPEPVTVSWNSGALTSGVHTFPAVLQSSGLYSLSSVVTVPSSSLGTKTYTCNVDHKPSNTKVDKRVESKYGPPCPPCPAPEAAGGPSVFLFPPKPKDTLMISRTPEVTCVVVDVSQEDPEVQFNWYVDGVEVHNAKTKPREEQFNSTYRVVSVLTVLHQDWLNGKEYKCKVSNKGLPSSIEKTISKAKGQPREPQVYTLPPSQEEMTKNQVSLTCLVKGFYPSDIAVEWESNGQPENNYKTTPPVLDSDGSFLLYSKLTVDKSRWQEGNVFSCSVMHEALHNHYTQKSLSLSLGK", "chain 4": "QTVVTQEPSLTVSPGGTVTLTCRSSTGAVTTSNYANWVQQKPGQAPRGLIGGTNKRAPGTPARFSGSLLGGKAALTLSGVQPEDEAEYYCALWYSNLWVFGGGTKLTVLGQPKAAPSVTLFPPSSEELQANKATLVCLISDFYPGAVTVAWKADSSPVKAGVETTTPSKQSNNKYAASSYLSLTPEQWKSHRSYSCQVTHEGSTVEKTVAPTECS"}, "B5": {"name": "TMEB565 (antibody, human IgG4 S228P, kappa, F234A L235A, V domains shown)", "VH": "QVQLVQSGAEVKKPGSSVKVSCKASGGTFSSYYISWVRQAPGQGLEWMGGIIPISGRANYAQKFQGRVTITADESTSTAYMELSSLRSEDTAVYYCARDGYSSGRSTTYAFDYWGQGTLVTVSS", "VL": "EIVLTQSPGTLSLSPGERATLSCRASQSVATYYLAWYQQKPGQAPRLLIYGASSRATGIPDRFSGSGSGTDFTLTISRLEPEDFAVYYCQQYGYNPITFGQGTKVEIKR", "notes": "IgG4 PAA anti-TMEFF2; also called TMEH396/TMEL111"}, "B6": {"name": "TMEB570 (antibody, human IgG4 S228P, kappa, F234A L235A, V domains shown)", "VH": "B5 VH", "VL": "B5 VL with A30S, S54Y, Y94H, N95S", "notes": "IgG4 PAA anti-TMEFF2; also called TMEH396/TMEL112"}, "B7": {"name": "TMEB674 (antibody, human IgG4 S228P, kappa, F234A L235A, V domains shown)", "VH": "VQLLESGGGLVQPPGGSLRLSCAASGFTFSSYSMSWVRQAPGKGLEWVSVISGGGSFTSYADSVKGRFTISRDNSNNTLYLQMSSLRAEDTAFYYCARMPLNSPHDCWGQGTLVTVSS", "VL": "AIQMTQSPSSLSASVGDRVTITCRASQGIRNDLGWYQQKPGKAPKLLIYAASSLQSGVPSRFSGSGSGTDFTLTISSLQPEDFATYYCLQDYNYSLTFGGGTKVEIRR", "notes": "IgG4 PAA anti-TMEFF2; also called TMEH410/TMEL126"}, "B8": {"name": "TMEB675 (antibody, human IgG4 S228P, kappa, F234A L235A, V domains shown)", "VH": "EVQLLESGGGLVQRGGSLRPSCAASGFTFSSYSMSWVRQAPGKGLEWVSVISGSGGFTDYADSVKGRFTISRDNSKNTLYLHMNSLRAEDTAVYYCARMPLNSPHDYWGQGTLVTVSS", "VL": "B7 VL with S95A, R107K", "notes": "IgG4 PAA anti-TMEFF2; also called TMEH411/TMEL127"}}, "note": "Substitutions are numbered along the chain they refer to. Numbers in names are those of the source."}
{"target": "T1, human PSMA on cells (LNCaP) (human, UniProt Q04609 1-750)", "T1 construct": "whole, on cells; also called LNCaP cells", "T1 sequence (Q04609 whole entry)": "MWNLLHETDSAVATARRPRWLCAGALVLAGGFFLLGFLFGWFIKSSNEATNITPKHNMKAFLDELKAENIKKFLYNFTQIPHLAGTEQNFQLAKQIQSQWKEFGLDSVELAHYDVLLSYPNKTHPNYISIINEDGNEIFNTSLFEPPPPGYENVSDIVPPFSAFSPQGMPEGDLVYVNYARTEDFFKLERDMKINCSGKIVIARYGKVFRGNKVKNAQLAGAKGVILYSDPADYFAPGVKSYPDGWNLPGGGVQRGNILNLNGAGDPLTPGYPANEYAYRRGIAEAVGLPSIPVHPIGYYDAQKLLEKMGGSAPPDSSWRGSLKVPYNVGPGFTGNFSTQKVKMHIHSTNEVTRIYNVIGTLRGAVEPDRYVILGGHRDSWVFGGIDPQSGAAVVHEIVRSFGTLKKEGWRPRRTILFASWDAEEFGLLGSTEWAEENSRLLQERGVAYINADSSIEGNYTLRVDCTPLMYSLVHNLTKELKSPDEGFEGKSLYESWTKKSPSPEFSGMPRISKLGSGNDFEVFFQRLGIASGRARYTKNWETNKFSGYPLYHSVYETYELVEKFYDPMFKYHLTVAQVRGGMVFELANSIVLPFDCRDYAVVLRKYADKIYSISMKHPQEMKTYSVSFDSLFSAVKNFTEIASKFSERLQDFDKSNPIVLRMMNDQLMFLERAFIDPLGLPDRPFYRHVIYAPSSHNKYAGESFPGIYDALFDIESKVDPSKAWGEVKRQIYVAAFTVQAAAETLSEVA", "experiment": "flow cytometry cell binding assay on LNCaP cells", "method": "(§1) PSMA×CD3 bispecific antibodies were tested for binding to PSMA positive cell line, LNCAP, to PSMA negative cell line, PC3. To assess the binding capabilities of the PSMA bispecific antibodies, the cell-binding assay was utilized (described previously). Bispecific antibodies were normalized for protein concentration and then incubated with the same number of cells expressing either human or cyno PSMA. The MFI at each concentration was collected by flow cytometry and plotted as a function of concentration. Data was transformed via log 10 and then plotted. Nonlinear regression of binding curves was done to determine EC50s.", "units": {"EC50 (read off the curve)": "pM"}}
{"binder": "B1", "binding result": "binds"}
{"binder": "B2", "binding result": "binds"}
{"binder": "B3", "binding result": "binds"}
{"binder": "B4", "EC50 (read off the curve)": "~6000"}
{"target": "T2, TMEW1 (TMEFF2-FL-ECD-His-Avitag) (human, UniProt Q9UIK5 41-320)", "T2 construct": "Human TMEFF2 ECD with C-terminal G3S, 6xHis tag and Avi-tag, all in the entry; also called TMEFF2 ECD", "T2 sequence": "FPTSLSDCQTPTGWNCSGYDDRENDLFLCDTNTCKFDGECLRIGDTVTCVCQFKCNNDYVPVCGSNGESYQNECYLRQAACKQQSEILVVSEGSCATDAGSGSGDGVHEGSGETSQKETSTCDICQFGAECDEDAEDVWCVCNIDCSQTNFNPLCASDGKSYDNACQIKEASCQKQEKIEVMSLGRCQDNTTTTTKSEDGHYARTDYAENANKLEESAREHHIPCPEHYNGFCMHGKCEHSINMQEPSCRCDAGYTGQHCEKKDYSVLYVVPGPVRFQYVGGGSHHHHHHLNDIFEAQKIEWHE", "experiment": "ProteOn SPR, mAb captured on anti-human Fc, TMEFF2 as analyte", "method": "(§2) The binding of anti-TMEFF2 mAbs to the ECD and the membrane proximal region of human TMEFF2 was measured by ProteOn SPR (Bio-Rad). The purified mAbs (diluted to a final concentration of 1 μg/ml in PBST) were used as ligands in the assay and were immobilized through Fc capture to Goat Anti-Human (GAH) IgG Fc. For amine coupling of the GAH IgG Fc, a 1:1 mixture of EDC (40 mM) and NHS (10 mM) were mixed immediately prior to injection to activate the chip surface and injected in the vertical orientation. GAH-Fc (at 30 μg/ml) antibody in acetate buffer (pH 5.0) was then flowed over the surface for 300 seconds at 30 μl/min in the vertical orientation. Any remaining reactive carboxyl groups in the surface were subsequently deactivated by injecting 1M Ethanolamine (pH 8.5) in the same orientation. The antibodies were used at a concentration of 1 μg/ml for immobilization. The antibodies were flowed over the surface in the horizontal direction. Human TMEFF2 ECD or the membrane proximal region in 3-fold dilution series of 5 concentrations (highest concentration ranging from 100-600 nM) was flowed in as analyte in the vertical orientation to bind to the captured molecules. A buffer sample was also injected in the 6th channel in the vertical direction to monitor any drift in the baseline signal. The association and dissociation phases for all concentrations were monitored over 3 minutes and 30 (or 15) minutes respectively, at a flow rate of 100 μL/min. The binding surface was regenerated for the next interaction cycle using an 18 second pulse of 0.8% phosphoric acid to remove the bound antigen. The raw data were processed by subtracting two sets of reference data from the response data: 1) the inter-spot signals to correct for the non-specific interactions between the antigen and the empty chip surface; 2) the empty channel signals (where only PBST was flowed over the chip) to correct for non-specific baseline drift.", "units": {"Kd": "pM", "koff": "s⁻¹", "kon": "M⁻¹ s⁻¹"}}
{"binder": "B5", "Kd": 20, "koff": "9.13e-06", "kon": 384000}
{"binder": "B6", "Kd": 110, "koff": "5.13e-05", "kon": 464000}
{"binder": "B7", "Kd": 100, "koff": 0.000162, "kon": "2.01e+06"}
{"binder": "B8", "Kd": 100, "koff": 0.000153, "kon": "2.65e+06"}
{"target": "T3, TMEW19 (spTMEFF2(230-320)G3S-H6) (human, UniProt Q9UIK5 230-320)", "T3 construct": "Residues 230-320 of human TMEFF2 with G3S and 6xHis tag, all in the entry; also called TMEFF2 membrane proximal region; MP", "T3 sequence": "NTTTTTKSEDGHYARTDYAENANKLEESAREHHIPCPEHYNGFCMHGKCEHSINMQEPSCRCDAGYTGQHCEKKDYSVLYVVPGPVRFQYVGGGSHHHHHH", "experiment": "ProteOn SPR, mAb captured on anti-human Fc, TMEFF2 as analyte", "method": "as §2", "units": {"Kd": "pM", "koff": "s⁻¹", "kon": "M⁻¹ s⁻¹"}}
{"binder": "B5", "Kd": 10, "koff": "6.39e-06", "kon": 777000}
{"binder": "B6", "Kd": 60, "koff": "4.67e-05", "kon": 762000}
{"binder": "B7", "Kd": 200, "koff": 0.000175, "kon": 837000}
{"binder": "B8", "Kd": 200, "koff": 0.000158, "kon": 972000}
{"target": "T1, human PSMA on cells (LNCaP)", "experiment": "flow cytometry cell binding assay on LNCaP cells", "remark": "another data set of the same source", "method": "as §1", "units": {"EC50 (read off the curve)": "pM"}}
{"binder": "B4", "EC50 (read off the curve)": "~6000"}
